The record followed here is the supplement of paper PMC7877785.

± gives the uncertainty stated by the source.

The nature of the series: self-splicing fitness, log relative to wild type (ln ratio); higher = more splicing; Tetrahymena group I intron in knt gene, E. coli kanamycin selection, DiMSum; sequences stand for … in CUCUCU…GGAGGGAAAAGUUAUCAGGCAUGCACCUGGUAGCUAGUCUUUAAACCAAUAGAUUGCAUCGGUUUAAAAGGCAAGACCGUCAAAUUGCGGGAAAGGGGUCAACAGCCGUUCAGUACCAAGUCUCAGGGGAAACUUUGAGAUGGCCUUGCAAAGGGUAUGGUAAUAAGCUGACGGACAUGGUCCUAACCACGCAGCCAAGUCCUAAGUCAACAGAUCUUCUGUUGAUAUGGAUGCAGUUCACAGACUAAAUGUCGGUCGGGGAAGAUGUAUUCUUCUCAUAAGAUAUAGUCGGACCUCUCCUUAAUGGGAGCUAGCGGAUGAAGUGAUGCAACACUGGAGCCGCUGGGAACUAAUUUGUAUGCGAAAGUAUAUUGAUUAGUUUUGGAGUACUCGUGGUCG
The procedure, abridged: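 A randomised library covering all eight P1ex-region intron nucleotides was built with the intron in the knt kanamycin-resistance gene on pET-22b(+) and held in E. coli BL21(DE3). Cells were grown overnight at 37°C or 30°C on LB agar, with or without 25 μg/mL kanamycin, plus 100 μg/mL carbenicillin, 50 μM IPTG and 0.2% rhamnose, and pooled colonies were amplicon-sequenced on an Illumina HiSeq 2500. DiMSum fitness is the error-weighted combination of wild-type-normalised replicate fold changes, kanamycin versus none.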

For the sequence AGGGAGCAAUAUUACGCCGU, the “self-splicing fitness (ln)” value was -2.11 ± 0.42 (30 °C) and -0.233 ± 0.39 (37 °C). For AGGGAGCAAUAUUACGCCUU, under “30 °C”, the “self-splicing fitness (ln)” value is -3.04 ± 0.36. Consider AGGGAGCAAUAUUACGCGCG, for which the “self-splicing fitness (ln)” value reads like this: (30 °C) -1.62 ± 0.35; (37 °C) -1.11 ± 0.37.

Consider AGGGAGCAAUAUUACGGAUU, for which the “self-splicing fitness (ln)” value by setting is: (30 °C) -4.58 ± 0.38; (37 °C) -2.67 ± 0.31. Regarding AGGGAGCAAUAUUACGGCGG, the “self-splicing fitness (ln)” value reads like this: (30 °C) -2.87 ± 0.21; (37 °C) -2.73 ± 0.3. The corresponding values for AGGGAGCAAUAUUACGUCAA are -3.37 ± 0.44 and -2.52 ± 0.45. The like results for AGGGAGCAAUAUUACGUCCU were, in that order, -2.66 ± 0.29 and -1.55 ± 0.24. The corresponding values for AGGGAGCAAUAUUACGUCUU are -2.53 ± 0.15 and -0.226 ± 0.15. In the case of AGGGAGCAAUAUUACGUGUU, the “self-splicing fitness (ln)” value runs as follows: (30 °C) -2.63 ± 0.31; (37 °C) -1.73 ± 0.29.

In the case of AGGUAGCAAUAUUACGAAAG, the “self-splicing fitness (ln)” value (30 °C) was -3.732 ± 0.036 and the “self-splicing fitness (ln)” value (37 °C) was -2.49 ± 0.045. The like results for AGGUAGCAAUAUUACGAAGA were, in that order, -2.84 ± 0.03 and -1.83 ± 0.038. The like results for AGGUAGCAAUAUUACGACAC were, in that order, -0.582 ± 0.018 and -0.427 ± 0.036. The corresponding values for AGGUAGCAAUAUUACGACCG are -0.101 ± 0.02 and 0.197 ± 0.039. Turning to AGGUAGCAAUAUUACGCAAC, the “self-splicing fitness (ln)” value reads like this: (30 °C) -3.73 ± 0.042; (37 °C) -2.61 ± 0.049.

For AGGUAGCAAUAUUACGCGCG, the “self-splicing fitness (ln)” value is -0.525 ± 0.016 (30 °C) and -0.215 ± 0.035 (37 °C).

In the case of AGGUAGCAAUAUUACGCGGG, the “self-splicing fitness (ln)” value reads like this: (30 °C) -3.612 ± 0.026; (37 °C) -2.38 ± 0.037. The corresponding values for AGGUAGCAAUAUUACGCGUA are -1.22 ± 0.017 and -0.701 ± 0.034. Regarding AGGUAGCAAUAUUACGCUGC, the “self-splicing fitness (ln)” value (30 °C) is -3.88 ± 0.042 and the “self-splicing fitness (ln)” value (37 °C) is -2.79 ± 0.054. The like results for AGGUAGCAAUAUUACGGACU were, in that order, 0.0184 ± 0.014 and 0.271 ± 0.033. In the case of AGGUAGCAAUAUUACGGCCG, the “self-splicing fitness (ln)” value by setting is: (30 °C) -0.244 ± 0.018; (37 °C) 0.0571 ± 0.038. The corresponding values for AGGUAGCAAUAUUACGGGAU are -2.755 ± 0.02 and -1.49 ± 0.034. The like results for AGGUAGCAAUAUUACGGGCA were, in that order, -0.941 ± 0.017 and -0.414 ± 0.034. The corresponding values for AGGUAGCAAUAUUACGGGCC are -1.74 ± 0.024 and -1.5 ± 0.041. For the sequence AGGUAGCAAUAUUACGGGGA, the “self-splicing fitness (ln)” value by setting is: (30 °C) -3.342 ± 0.031; (37 °C) -2.42 ± 0.039.

For the sequence AGGUAGCAAUAUUACGGGGU, the “self-splicing fitness (ln)” value (30 °C) was -3.984 ± 0.027 and the “self-splicing fitness (ln)” value (37 °C) is -2.94 ± 0.038. The corresponding values for AGGUAGCAAUAUUACGGGUU are -2.347 ± 0.017 and -1.72 ± 0.035. The corresponding values for AGGUAGCAAUAUUACGGUAG are -3.883 ± 0.03 and -2.99 ± 0.042. The like results for AGGUAGCAAUAUUACGUAAG were, in that order, -2.267 ± 0.017 and -1.25 ± 0.034. In the case of AGGUAGCAAUAUUACGUACA, the “self-splicing fitness (ln)” value runs as follows: (30 °C) -0.927 ± 0.016; (37 °C) -0.257 ± 0.034. The like results for AGGUAGCAAUAUUACGUACG were, in that order, -1.19 ± 0.015 and -0.48 ± 0.034. Take AGGUAGCAAUAUUACGUGAU: the “self-splicing fitness (ln)” value (30 °C) was -2.479 ± 0.016 and the “self-splicing fitness (ln)” value (37 °C) is -1.53 ± 0.034. The corresponding values for AGGUAGCAAUAUUACGUUCG are -0.889 ± 0.014 and -0.42 ± 0.034.

Take AGGUAGCAAUAUUACGUUGG: the “self-splicing fitness (ln)” value is -3.813 ± 0.028 (30 °C) and -2.95 ± 0.041 (37 °C).
